Reference: patent US20240066131A1 (Protagonist Therapeutics, Inc., priority 2020, published 2024)
Starred links: 1 amine or outer side, 2 acyl side, 3 side chain; linkers in the order of their positions; H or OH if unused. Positions of bridges follow the written chain, without caps; N, C: chain ends. Non-standard residues stand in square brackets, D forms with d. Groups on a side chain read outwards from the residue. *: point of attachment. ButanoicP = (R)-4-(pyrrolidin-2-yl)butanoic acid, O=C(CCC[C@@H]1CCCN1[*:1])[*:2]; Ala(1H-tetrazol-5-yl) = N[C@@H](Cc1nnn[nH]1)C(=O)O; Dip = N[C@H](C(=O)O)C(c1ccccc1)c1ccccc1; His(τ-Me) = Cn1cnc(C[C@H](N)C(=O)O)c1; Palmitoyl = CCCCCCCCCCCCCCCC(=O)*; β3hF = N[C@H](CC(=O)O)Cc1ccccc1; NMeK = CN[C@@H](CCCCN)C(=O)O; Isovaleryl = CC(C)CC(=O)*; IDA = iminodiacetic acid; Ahx = NCCCCCC(=O)O

T1: human ferroportin (SLC40A1) fused in frame with GFP, stably expressed in HEK293 cells (human, UniProt Q9NP59 1-571)
T1 sequence (looked up): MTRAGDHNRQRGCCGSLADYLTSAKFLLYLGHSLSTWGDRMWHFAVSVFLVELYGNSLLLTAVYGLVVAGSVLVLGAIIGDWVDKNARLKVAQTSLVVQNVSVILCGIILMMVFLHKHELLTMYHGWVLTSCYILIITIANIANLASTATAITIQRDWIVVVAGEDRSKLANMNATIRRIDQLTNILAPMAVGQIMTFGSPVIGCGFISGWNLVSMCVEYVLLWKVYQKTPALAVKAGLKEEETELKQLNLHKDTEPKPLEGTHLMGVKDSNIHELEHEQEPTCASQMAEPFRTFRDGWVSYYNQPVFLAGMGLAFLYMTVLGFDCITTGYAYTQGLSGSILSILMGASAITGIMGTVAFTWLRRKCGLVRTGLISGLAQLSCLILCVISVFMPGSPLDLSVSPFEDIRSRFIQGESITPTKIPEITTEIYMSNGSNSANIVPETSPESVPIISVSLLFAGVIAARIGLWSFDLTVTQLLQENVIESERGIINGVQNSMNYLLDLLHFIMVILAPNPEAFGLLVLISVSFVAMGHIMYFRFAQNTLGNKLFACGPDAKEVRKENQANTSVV


Molecular target: T1, human ferroportin (SLC40A1) fused in …
Assay: cell-based or functional assay

Binder | FPN EC50 [nM]
Isovaleryl-LT[His(τ-Me)][Dip]PAIK([Ahx-Palmitoyl])[β3hF]-NH2 (SMILES CCCCCCCCCCCCCCCC(=O)NCCCCCC(=O)NCCCC[C@H](NC(=O)[C@@H](NC(=O)[C@H](C)NC(=O)[C@@H]1CCCN1C(=O)[C@@H](NC(=O)[C@H](Cc1cn(C)cn1)NC(=O)[C@@H](NC(=O)[C@H](CC(C)C)NC(=O)CC(C)C)[C@@H](C)O)C(c1ccccc1)c1ccccc1)[C@@H](C)CC)C(=O)N[C@H](CC(N)=O)Cc1ccccc1) [Isovaleric Acid-L-T-[(1Me)His]-[Dpa]-P-A-I-[Lys(Ahx_Palm)]-[bhPhe]-NH2] | > 3000
{(3-Trifluoromethyl)butyric acid}-ETH[Dip]PIIK(Ac)[β3hF]-NH2 [[(3-Trifluoromethyl)butyric acid]-E-T-H-[Dpa]-P-I-I-[Lys(Ac)]-[bhPhe]-NH2] | 2080
Isovaleryl-ETH[Dip]PKIK([Ahx-Palmitoyl])[β3hF][dK]-NH2 (lactam 1-6 (inferred)) [Isovaleric Acid-E-T-H-[Dpa]-P-K-I-[Lys(Ahx_Palm)]-[bhPhe]-[(D)Lys]-NH2; (E and K cyclized)] | 122
Isovaleryl-ETH[Dip][ButanoicP]K([Ahx-Palmitoyl])[β3hF]-NH2 [Isovaleric Acid-E-T-H-[Dpa]-[ButanoicP]-[Lys(Ahx_Palm)]-[bhPhe]-NH2] | 20.5
Isovaleryl-ATHKPEIK([Ahx-Palmitoyl])[β3hF]R-NH2 (lactam 4-6; SMILES CCCCCCCCCCCCCCCC(=O)NCCCCCC(=O)NCCCC[C@H](NC(=O)[C@@H](NC(=O)[C@@H]1CCC(=O)NCCCC[C@H](NC(=O)[C@H](Cc2c[nH]cn2)NC(=O)[C@@H](NC(=O)[C@H](C)NC(=O)CC(C)C)[C@@H](C)O)C(=O)N2CCC[C@H]2C(=O)N1)[C@@H](C)CC)C(=O)N[C@H](CC(=O)N[C@@H](CCCNC(=N)N)C(N)=O)Cc1ccccc1) [Isovaleric Acid-A-T-H-K-P-E-I-[Lys(Ahx_Palm)]-[bhPhe]-R-NH2; (K and E cyclized)] | > 3000
Glutaric_Acid-ETH[Dip]PIIK(Ac)[β3hF]-NH2 [[Glutaric_Acid]-E-T-H-[Dpa]-P-I-I-[Lys(Ac)]-[bhPhe]-NH2] | > 3000
Isovaleryl-[Ala(1H-tetrazol-5-yl)]T[His(τ-Me)][Dip]PAIK([Ahx-Palmitoyl])[β3hF]-NH2 (SMILES CCCCCCCCCCCCCCCC(=O)NCCCCCC(=O)NCCCC[C@H](NC(=O)[C@@H](NC(=O)[C@H](C)NC(=O)[C@@H]1CCCN1C(=O)[C@@H](NC(=O)[C@H](Cc1cn(C)cn1)NC(=O)[C@@H](NC(=O)[C@H](Cc1nnn[nH]1)NC(=O)CC(C)C)[C@@H](C)O)C(c1ccccc1)c1ccccc1)[C@@H](C)CC)C(=O)N[C@H](CC(N)=O)Cc1ccccc1) [Isovaleric Acid-[Tet1]-T-[(1Me)His]-[Dpa]-P-A-I-[Lys(Ahx_Palm)]-[bhPhe]-NH2] | 63.1
Isovaleryl-LT[His(τ-Me)][Dip]PAI[NMeK][β3hF]K([Ahx-Palmitoyl])-NH2 [Isovaleric Acid-L-T-[(1Me)His]-[Dpa]-P-A-I-[(N-Me)Lys)]-[bhPhe]-[Lys(Ahx_Palm)]-NH2] | 95.9
Isovaleryl-ATHEPKIK([Ahx-Palmitoyl])[β3hF]R-NH2 (lactam 4-6; SMILES CCCCCCCCCCCCCCCC(=O)NCCCCCC(=O)NCCCC[C@H](NC(=O)[C@@H](NC(=O)[C@@H]1CCCCNC(=O)CC[C@H](NC(=O)[C@H](Cc2c[nH]cn2)NC(=O)[C@@H](NC(=O)[C@H](C)NC(=O)CC(C)C)[C@@H](C)O)C(=O)N2CCC[C@H]2C(=O)N1)[C@@H](C)CC)C(=O)N[C@H](CC(=O)N[C@@H](CCCNC(=N)N)C(N)=O)Cc1ccccc1) [Isovaleric Acid-A-T-H-E-P-K-I-[Lys(Ahx_Palm)]-[bhPhe]-R-NH2; (E and K cyclized)] | > 3000
{Isophthalic Acid}-ETH[Dip]PIIK(Ac)[β3hF]-NH2 [[Isophthalic Acid]-E-T-H-[Dpa]-P-I-I-[Lys(Ac)]-[bhPhe]-NH2] | > 5000
Isovaleryl-[Ala(1H-tetrazol-5-yl)]T[His(τ-Me)][Dip]PAI[β3hF][dK]-NH2 (SMILES CC[C@H](C)[C@H](NC(=O)[C@H](C)NC(=O)[C@@H]1CCCN1C(=O)[C@@H](NC(=O)[C@H](Cc1cn(C)cn1)NC(=O)[C@@H](NC(=O)[C@H](Cc1nnn[nH]1)NC(=O)CC(C)C)[C@@H](C)O)C(c1ccccc1)c1ccccc1)C(=O)N[C@H](CC(=O)N[C@H](CCCCN)C(N)=O)Cc1ccccc1) [Isovaleric Acid-[Tet1]-T-[(1-Me)His]-[Dpa]-P-A-I-[bhPhe]-[(D)Lys]-NH2] | 378
Succinic_Acid-ETH[Dip]PIIK(Ac)[β3hF]-NH2 [[Succinic_Acid]-E-T-H-[Dpa]-P-I-I-[Lys(Ac)]-[bhPhe]-NH2] | > 3000
Isovaleryl-[N‑(CH2CH2CH2CO2H)Gly]TH[Dip]PAIK([Ahx-Palmitoyl])[β3hF]-NH2 [Isovaleric Acid-[N-(CH2CH2CH2CO2H)Gly]-T-H-[Dpa]-P-A-I-[Lys(Ahx_Palm)]-[bhPhe]-NH2] | 202
Isovaleryl-E[N‑(CH2CH2OH)Gly]H[Dip]PAIK([Ahx-Palmitoyl])[β3hF]-NH2 [Isovaleric Acid-E-[N-(CH2CH2OH)Gly]-H-[Dpa]-P-A-I-[Lys(Ahx_Palm)]-[bhPhe]-NH2] | 2230
Isovaleryl-ATH[Dip]PEI[dK][β3hF]K([Ahx-Palmitoyl])R-NH2 (lactam 6-8; SMILES CCCCCCCCCCCCCCCC(=O)NCCCCCC(=O)NCCCC[C@H](NC(=O)C[C@H](Cc1ccccc1)NC(=O)[C@H]1CCCCNC(=O)CC[C@H](NC(=O)[C@@H]2CCCN2C(=O)[C@@H](NC(=O)[C@H](Cc2c[nH]cn2)NC(=O)[C@@H](NC(=O)[C@H](C)NC(=O)CC(C)C)[C@@H](C)O)C(c2ccccc2)c2ccccc2)C(=O)N[C@@H]([C@@H](C)CC)C(=O)N1)C(=O)N[C@@H](CCCNC(=N)N)C(N)=O) [Isovaleric Acid-A-T-H-[Dpa]-P-E-I-[(D)Lys]-[bhPhe]-[Lys(Ahx_Palm)]-R-NH2; (E and (D)Lys cyclized)] | 61.2
Isovaleryl-ETH[Dip]PAI[dK][β3hF]K([Ahx-Palmitoyl])[dK]-NH2 (SMILES CCCCCCCCCCCCCCCC(=O)NCCCCCC(=O)NCCCC[C@H](NC(=O)C[C@H](Cc1ccccc1)NC(=O)[C@@H](CCCCN)NC(=O)[C@@H](NC(=O)[C@H](C)NC(=O)[C@@H]1CCCN1C(=O)[C@@H](NC(=O)[C@H](Cc1c[nH]cn1)NC(=O)[C@@H](NC(=O)[C@H](CCC(=O)O)NC(=O)CC(C)C)[C@@H](C)O)C(c1ccccc1)c1ccccc1)[C@@H](C)CC)C(=O)N[C@H](CCCCN)C(N)=O) [Isovaleric Acid-E-T-H-[Dpa]-P-A-I-[(D)Lys]-[bhPhe]-[Lys(Ahx_Palm)]-[(D)Lys]-NH2] | 45.5

Next, values leading:

FPN EC50 [nM] | Binder
> 3000 | Gallic_Acid-ETH[Dip]PIIK(Ac)[β3hF]-NH2 [[Gallic_Acid]-E-T-H-[Dpa]-P-I-I-[Lys(Ac)]-[bhPhe]-NH2]
90.7 | Isovaleryl-ATH[Dip]PKIE[β3hF]K([Ahx-Palmitoyl])R-NH2 (lactam 6-8; SMILES CCCCCCCCCCCCCCCC(=O)NCCCCCC(=O)NCCCC[C@H](NC(=O)C[C@H](Cc1ccccc1)NC(=O)[C@@H]1CCC(=O)NCCCC[C@H](NC(=O)[C@@H]2CCCN2C(=O)[C@@H](NC(=O)[C@H](Cc2c[nH]cn2)NC(=O)[C@@H](NC(=O)[C@H](C)NC(=O)CC(C)C)[C@@H](C)O)C(c2ccccc2)c2ccccc2)C(=O)N[C@@H]([C@@H](C)CC)C(=O)N1)C(=O)N[C@@H](CCCNC(=N)N)C(N)=O) [Isovaleric Acid-A-T-H-[Dpa]-P-K-I-E-[bhPhe]-[Lys(Ahx_Palm)]-R-NH2; (K and E cyclized)]
5740 | {3,3,3‑Trifluoro propionic acid}-ETH[Dip]PIIK(Ac)[β3hF]-NH2 [[3,3,3-Trifluoro propionic acid]-E-T-H-[Dpa]-P-I-I-[Lys(Ac)]-[bhPhe]-NH2]
> 5000 | Pimelic_Acid-ETH[Dip]PIIK(Ac)[β3hF]-NH2 [[Pimelic_Acid]-E-T-H-[Dpa]-P-I-I-[Lys(Ac)]-[bhPhe]-NH2]
1450 | Isovaleryl-[dE]TH[Dip]PIIK(Ac)[β3hF]-NH2 [Isovaleric Acid-[(D)Glu]-T-H-[Dpa]-P-I-I-[Lys(Ac)]-[bhPhe]-NH2]
103 | Isovaleryl-LTH[Dip]PAI[NMeK][β3hF]K([Ahx-Palmitoyl])-NH2 (SMILES CCCCCCCCCCCCCCCC(=O)NCCCCCC(=O)NCCCC[C@H](NC(=O)C[C@H](Cc1ccccc1)NC(=O)[C@H](CCCCN)N(C)C(=O)[C@@H](NC(=O)[C@H](C)NC(=O)[C@@H]1CCCN1C(=O)[C@@H](NC(=O)[C@H](Cc1c[nH]cn1)NC(=O)[C@@H](NC(=O)[C@H](CC(C)C)NC(=O)CC(C)C)[C@@H](C)O)C(c1ccccc1)c1ccccc1)[C@@H](C)CC)C(N)=O) [Isovaleric Acid-L-T-H-[Dpa]-P-A-I-[(N-Me)Lys]-[bhPhe]-[Lys(Ahx_Palm)]-NH2]
184 | Isovaleryl-KTH[Dip]PAIK([Ahx-Palmitoyl])[β3hF]E-NH2 (lactam 1-10; SMILES CCCCCCCCCCCCCCCC(=O)NCCCCCC(=O)NCCCC[C@@H]1NC(=O)[C@H]([C@@H](C)CC)NC(=O)[C@H](C)NC(=O)[C@@H]2CCCN2C(=O)[C@H](C(c2ccccc2)c2ccccc2)NC(=O)[C@H](Cc2c[nH]cn2)NC(=O)[C@H]([C@@H](C)O)NC(=O)[C@@H](NC(=O)CC(C)C)CCCCNC(=O)CC[C@@H](C(N)=O)NC(=O)C[C@H](Cc2ccccc2)NC1=O) [Isovaleric Acid-K-T-H-[Dpa]-P-A-I-[Lys(Ahx_Palm)]-[bhPhe]-E-NH2; (K and E cyclized)]
241 | Isovaleryl-[Ala(1H-tetrazol-5-yl)]T[His(τ-Me)][Dip]PAI[β3hF][dK]A-NH2 (SMILES CC[C@H](C)[C@H](NC(=O)[C@H](C)NC(=O)[C@@H]1CCCN1C(=O)[C@@H](NC(=O)[C@H](Cc1cn(C)cn1)NC(=O)[C@@H](NC(=O)[C@H](Cc1nnn[nH]1)NC(=O)CC(C)C)[C@@H](C)O)C(c1ccccc1)c1ccccc1)C(=O)N[C@H](CC(=O)N[C@H](CCCCN)C(=O)N[C@@H](C)C(N)=O)Cc1ccccc1) [Isovaleric Acid-[Tet1]-T-[(1-Me)His]-[Dpa]-P-A-I-[bhPhe]-[(D)Lys]-A-NH2]
> 5000 | {IDA}-ETH[Dip]PIIK(Ac)[β3hF]-NH2 [[IDA]-E-T-H-[Dpa]-P-I-I-[Lys(Ac)]-[bhPhe]-NH2]
